Reference: the supplement of paper PMC5998384

Assays:
HeLa Kyoto [1] = assay: solubility in G1/S (NP-40 vs SDS abundance) (log2 ratio); higher = more soluble; details: cell cycle stage: G1/S
HeLa Kyoto [2] = assay: solubility change mitosis vs G1/S (difference of NP-40 vs SDS log2 ratios) (log2 ratio difference); higher = more soluble in mitosis
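Wherever solubility change mitosis vs G1/S (difference of NP-40 vs SDS log2 ratios) is given: synchronized HeLa Kyoto cells (double thymidine block for G1/S, nocodazole release for mitosis), protein amounts in NP-40 versus SDS lysates quantified by mass spectrometry, three biological replicates.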
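Wherever solubility in G1/S (NP-40 vs SDS abundance) is given: HeLa Kyoto cells arrested at G1/S by double thymidine block, proteins quantified by TMT10plex mass spectrometry in mild NP-40 versus SDS extracts, three biological replicates.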

| Sequence | solubility in G1/S (log2) (HeLa Kyoto [1]) | solubility change mitosis (log2) (HeLa Kyoto [2]) |
| --- | --- | --- |
| MTEKAPEPHVEEDDDDELDSKLNYKPPPQKSLKELQEMDKDDESLIKYKKTLLGDGPVVTDPKAPNVVVTRLTLVCESAPGPITMDLTGDLEALKKETIVLKEGSEYRVKIHFKVNRDIVSGLKYVQHTYRTGVKVDKATFMVGSYGPRPEEYEFLTPVEEAPKGMLARGTYHNKSFFTDDDKQDHLSWEWNLSIKKEWTE [ARHGDIB] | 0.0837 | -0.0572 |
| MTHTRRKSLPMLSSGLTGRREPLQMEDSNMEQGVEGVEPGMPESPGHLTGRRKNYPLRKRPLVPEKPKACKVLLTRLENVAGPRSADEADELPPDLPKPPSPAPSSEDPGLAQPRKRRLASLNAEALNNLLLEREDTSSLAGTRRSRAGDPHRSRDRDRATGGWSSSKKRPRLGDLGGGSRDLSPEPAPDEGPRRDGDPAPKRLASLNAAAFLKLSQERELPLRLPRAHAEVDGRSTEPPAPKAPRPKWPKVNGKNYPKAWQGASSGEAAGPPGWQGCPDEPWPSATPCGPSVQPSHQPLSKALESPLGLRPHLPLLMGGQAALKPEPGRPGEESPAPKQELHQPSFPTPQLSPLPMPGNPADYNGLCVGPELTALGSFYLYCGQEGLQCGGYSPCPMLPEGKLSPVAAPHEEGLLLAPSSVPSGTPFQHPPWGSSRYCSSEDTGVNGYSICGVLPLSVTHAGTTCGGCPYKMPFAAEGCRSLGQLEFPLPEAGHPASPAHPLLGCPVPSVPPAAEPVPHLQTPTSEPQTVARACPQSAKPPSGSKSGLRTGSSCRHTARSKAARRPSHPKQPRVQRPRPRRRRRRRTNGWVPVGAACEKAVYVLDEPEPAIRKSYQAVERHGETIRVRDTVLLKSGPRKTSTPYVAKISALWENPESGELMMSLLWYYRPEHLQGGRSPSMHEPLQNEVFASRHQDQNSVACIEEKCYVLTFAEYCRFCAMAKRRGEGLPSRKTALVPPSADYSTPPHRTVPEDTDPELVFLCRHVYDFRHGRILKNPQ [BAHD1] | -0.799 | 0.738 |
| MTKKKRENLGVALEIDGLEEKLSQCRRDLEAVNSRLHSRELSPEARRSLEKEKNSLMNKASNYEKELKFLRQENRKNMLLSVAIFILLTLVYAYWTM [CCDC167] | 0.839 | 0.231 |
| MTPLVSRLSRLWAIMRKPRAAVGSGHRKQAASQEGRQKHAKNNSQAKPSACDGMIAECPGAPAGLARQPEEVVLQASVSSYHLFRDVAEVTAFRGSLLSWYDQEKRDLPWRRRAEDEMDLDRRAYAVWVSEVMLQQTQVATVINYYTGWMQKWPTLQDLASASLEEVNQLWAGLGYYSRGRRLQEGARKVVEELGGHMPRTAETLQQLLPGVGRYTAGAIASIAFGQATGVVDGNVARVLCRVRAIGADPSSTLVSQQLWGLAQQLVDPARPGDFNQAAMELGATVCTPQRPLCSQCPVESLCRARQRVEQEQLLASGSLSGSPDVEECAPNTGQCHLCLPPSEPWDQTLGVVNFPRKASRKPPREESSATCVLEQPGALGAQILLVQRPNSGLLAGLWEFPSVTWEPSEQLQRKALLQELQRWAGPLPATHLRHLGEVVHTFSHIKLTYQVYGLALEGQTPVTTVPPGARWLTQEEFHTAAVSTAMKKVFRVYQGQQPGTCMGSKRSQVSSPCSRKKPRMGQQVLDNFFRSHISTDAHSLNSAAQ [MUTYH] | 0.104 | -0.0934 |
| MTPWLGLIVLLGSWSLGDWGAEACTCSPSHPQDAFCNSDIVIRAKVVGKKLVKEGPFGTLVYTIKQMKMYRGFTKMPHVQYIHTEASESLCGLKLEVNKYQYLLTGRVYDGKMYTGLCNFVERWDQLTLSQRKGLNYRYHLGCNCKIKSCYYLPCFVTSKNECLWTDMLSNFGYPGYQSKHYACIRQKGGYCSWYRGWAPPDKSIINATDP [TIMP3] | -0.478 | -0.0173 |
| MTSFEDADTEETVTCLQMTVYHPGQLQCGIFQSISFNREKLPSSEVVKFGRNSNICHYTFQDKQVSRVQFSLQLFKKFNSSVLSFEIKNMSKKTNLIVDSRELGYLNKMDLPYRCMVRFGEYQFLMEKEDGESLEFFETQFILSPRSLLQENNWPPHRPIPEYGTYSLCSSQSSSPTEMDENES [TIFA] | 0.0872 | -0.224 |
| MTSVTRSEIIDEKGPVMSKTHDHQLESSLSPVEVFAKTSASLEMNQGVSEERIHLGSSPKKGGNCDLSHQERLQSKSLHLSPQEQSASYQDRRQSWRRASMKETNRRKSLHPIHQGITELSRSISVDLAESKRLGCLLLSSFQFSIQKLEPFLRDTKGFSLESFRAKASSLSEELKHFADGLETDGTLQKCFEDSNGKASDFSLEASVAEMKEYITKFSLERQTWDQLLLHYQQEAKEILSRGSTEAKITEVKVEPMTYLGSSQNEVLNTKPDYQKILQNQSKVFDCMELVMDELQGSVKQLQAFMDESTQCFQKVSVQLGKRSMQQLDPSPARKLLKLQLQNPPAIHGSGSGSCQ [DSN1] | 0.0805 | -0.12 |
| MTTKNLETKVTVTSSPIRGAGDGMETEEPPKSVEVTSGVQSRKHHSLQSPWKKAVPSESPGVLQLGKMLTEKAMEVKAVRILVPKAAITHDIPNKNTKVKSLGHHKGEFLGQSEGVIEPNKELSEVKNVLEKLKNSERRLLQDKEGLSNQLRVQTEVNRELKKLLVASVGDDLQYHFERLAREKNQLILENEALGRNTAQLSEQLERMSIQCDVWRSKFLASRVMADELTNSRAALQRQNRDAHGAIQDLLSEREQFRQEMIATQKLLEELLVSLQWGREQTYSPSVQPHSTAELALTNHKLAKAVNSHLLGNVGINNQKKIPSTVEFCSTPAEKMAETVLRILDPVTCKESSPDNPFFESSPTTLLATKKNIGRFHPYTRYENITFNCCNHCRGELIAL [BLZF1] | 0.15 | 0.0573 |
| MTTLTHRARRTEISKNSEKKMESEEDSNWEKSPDNEDSGDSKDIRLTLMEEVLLLGLKDKEGYTSFWNDCISSGLRGGILIELAMRGRIYLEPPTMRKKRLLDRKVLLKSDSPTGDVLLDETLKHIKATEPTETVQTWIELLTGETWNPFKLQYQLRNVRERIAKNLVEKGILTTEKQNFLLFDMTTHPVTNTTEKQRLVKKLQDSVLERWVNDPQRMDKRTLALLVLAHSSDVLENVFSSLTDDKYDVAMNRAKDLVELDPEVEGTKPSATEMIWAVLAAFNKS [GOLPH3L] | 0.202 | 0.0306 |
| MVAWRSAFLVCLAFSLATLVQRGSGDFDDFNLEDAVKETSSVKQPWDHTTTTTTNRPGTTRAPAKPPGSGLDLADALDDQDDGRRKPGIGGRERWNHVTTTTKRPVTTRAPANTLGNDFDLADALDDRNDRDDGRRKPIAGGGGFSDKDLEDIVGGGEYKPDKGKGDGRYGSNDDPGSGMVAEPGTIAGVASALAMALIGAVSSYISYQQKKFCFSIQQGLNADYVKGENLEAVVCEEPQVKYSTLHTQSAEPPPPPEPARI [CD99L2] | -0.143 | -0.147 |
| MVLLHVKRGDESQFLLQAPGSTELEELTVQVARVYNGRLKVQRLCSEMEELAEHGIFLPPNMQGLTDDQIEELKLKDEWGEKCVPSGGAVFKKDDIGRRNGQAPNEKMKQVLKKTIEEAKAIISKKQVEAGVCVTMEMVKDALDQLRGAVMIVYPMGLPPYDPIRMEFENKEDLSGTQAGLNVIKEAEAQLWWAAKELRRTKKLSDYVGKNEKTKIIAKIQQRGQGAPAREPIISSEEQKQLMLYYHRRQEELKRLEENDDDAYLNSPWADNTALKRHFHGVKDIKWRPR [C21ORF59] | 0.335 | 0.0264 |
| MVMAALSLVAACWGRAAADESVQLPAAPGSSVRARETMVSVTMATSEWIQFFKEAGIPPGPAVNYAVMFVDNRIQKSMLLDLNKEIMNELGVTVVGDIIAILKHAKVVHRQDMCKAATESVPCSPSPLAGEIRRGTSAASRMITNSLNHDSPPSTPPRRPDTSTSKISVTVSNKMAAKSAKATAALARREEESLAVPAKRRRVTAEMEGKYVINMPKGTTPRTRKILEQQQAAKGLHRTSVFDRLGAETKADTTTGSKPTGVFSRLGATPETDEDLAWDSDNDSSSSVLQYAGVLKKLGRGPAKASPQPALTVKAKATSSATTAAAPTLRRLALSSRSGLERKPESLSKVSIIKRLGAAALVPEAQDSQVTSTKSKSSAEVKVTIKRTLVGPRGSSSSEGLGAQMDHAGTVSVFKRLGRRTF [C19ORF47] | -0.824 | 1.04 |
